Laboratory results as given in publication PMC5109273.

B1: non-fused full-length ICP47(1-88) with C-terminal mVenus-myc-His10 tag (natural protein)
chain: MSWALEMADTFLDTMRVGPRTYADVRDEINKRGREDREAARTAVHDPERPLLRSPGLLPEIAPNASLGVAHRRTGGTVTDSPRNPVTR

Experiments:
TAP (Homo sapiens) = TAP (Homo sapiens) (UniProt Q03518); conditions: cited from earlier work
[1] = target: ICP47-TAP fusion complex with fused ICP47(∆1-11) (UniProt P03170); assay: co-IP; HEK293T co-transfected 1:1:5 (TAP1:TAP2:viral factor); solubilised in 2% digitonin; sequential precipitation via SBP tag (streptavidin agarose, biotin elution) and C8 tag (anti-C8 antibody on Dynabeads); co-precipitated mVenus-tagged viral factor quantified by SDS-PAGE and in-gel fluorescence relative to TAP lacking fused ICP47; on ice, pH 7.4

UniProt Q03518, sequence (Q03518 whole entry, chain 1 of 2, the tested form may be a part): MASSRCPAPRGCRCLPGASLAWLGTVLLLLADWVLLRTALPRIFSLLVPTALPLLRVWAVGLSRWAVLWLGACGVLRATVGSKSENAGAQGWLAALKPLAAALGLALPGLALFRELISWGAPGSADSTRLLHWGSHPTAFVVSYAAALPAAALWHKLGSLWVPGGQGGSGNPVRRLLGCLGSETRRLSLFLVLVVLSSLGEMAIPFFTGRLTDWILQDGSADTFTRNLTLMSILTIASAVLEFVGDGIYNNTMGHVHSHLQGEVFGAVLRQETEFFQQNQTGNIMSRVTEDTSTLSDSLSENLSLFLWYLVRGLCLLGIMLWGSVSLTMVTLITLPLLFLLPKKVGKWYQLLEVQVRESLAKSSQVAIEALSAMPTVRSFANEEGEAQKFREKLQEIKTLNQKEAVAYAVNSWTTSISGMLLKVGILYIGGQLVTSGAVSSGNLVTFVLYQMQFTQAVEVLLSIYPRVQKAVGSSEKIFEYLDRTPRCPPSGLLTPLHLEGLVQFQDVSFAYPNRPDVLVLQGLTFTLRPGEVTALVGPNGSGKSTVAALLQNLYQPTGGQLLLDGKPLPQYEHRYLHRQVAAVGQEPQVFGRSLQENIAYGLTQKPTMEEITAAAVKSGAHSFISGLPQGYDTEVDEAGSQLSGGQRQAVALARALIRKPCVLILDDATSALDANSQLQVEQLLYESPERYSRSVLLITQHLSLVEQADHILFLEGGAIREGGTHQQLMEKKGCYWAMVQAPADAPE
UniProt Q03518, sequence (Q03519 whole entry, chain 2 of 2, further chain, the tested form may be a part): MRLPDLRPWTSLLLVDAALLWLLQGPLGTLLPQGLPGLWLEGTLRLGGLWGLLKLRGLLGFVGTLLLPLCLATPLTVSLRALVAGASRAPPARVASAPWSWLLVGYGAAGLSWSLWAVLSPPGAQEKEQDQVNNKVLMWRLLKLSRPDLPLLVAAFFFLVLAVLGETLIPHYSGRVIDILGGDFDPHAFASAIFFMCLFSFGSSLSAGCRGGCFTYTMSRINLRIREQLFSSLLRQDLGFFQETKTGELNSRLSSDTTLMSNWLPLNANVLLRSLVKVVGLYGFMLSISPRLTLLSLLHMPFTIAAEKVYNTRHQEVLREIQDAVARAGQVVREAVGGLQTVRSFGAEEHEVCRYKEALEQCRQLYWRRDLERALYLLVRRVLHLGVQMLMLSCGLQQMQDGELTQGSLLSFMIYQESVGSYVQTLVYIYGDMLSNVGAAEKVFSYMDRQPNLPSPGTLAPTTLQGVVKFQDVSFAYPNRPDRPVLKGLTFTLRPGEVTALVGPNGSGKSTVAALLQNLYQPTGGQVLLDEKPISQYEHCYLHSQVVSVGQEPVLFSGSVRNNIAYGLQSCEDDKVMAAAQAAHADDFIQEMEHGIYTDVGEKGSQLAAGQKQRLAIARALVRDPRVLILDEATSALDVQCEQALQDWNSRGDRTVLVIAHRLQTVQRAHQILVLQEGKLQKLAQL

| Molecule | Kd (TAP (Homo sapiens)) [nM] | co-precipitated viral factor relative to the TAP complex lacking fused ICP47 [1] [%] |
| --- | --- | --- |
| ICP47 (from UniProt P03170) | 50 | – |
| B1 | – | 100 |
